Data reported in patent publication US6333178.

Tests used:
[1] = target: DNA polymerase III holoenzyme
[2] = target: DNA polymerase I (Escherichia coli) (UniProt P00582)
[3] = target: DNA polymerase II (Escherichia coli) (UniProt P21189)
[4] = target: MBP-UmuC fusion protein (maltose binding protein fused to UmuC, DNA polymerase V) (Escherichia coli)

RecA (from UniProt P0A7G6) showed a Cro- mutation frequency after gap-filling replication by pol III holoenzyme with UmuD', RecA, SSB (Cro- mutation frequency per gene) [1] of 0.00081, a Cro- mutation frequency after gap-filling replication by pol I with UmuD', RecA, SSB (Cro- mutation frequency per gene) [2] of 0.00078 and a Cro- mutation frequency after gap-filling replication by pol II with UmuD', RecA, SSB (Cro- mutation frequency per gene) [3] of 0.00065. The Cro- mutation frequency after in vitro gap-filling replication, RecA omitted (Cro- mutation frequency per gene) [4] was 0.00025.

In the case of “SSB (single stranded DNA-binding protein) (from UniProt P0AGE0)”, the Cro- mutation frequency after gap-filling replication by pol III holoenzyme with UmuD', RecA, SSB (Cro- mutation frequency per gene) [1] is reported as 0.00081, the Cro- mutation frequency after gap-filling replication by pol I with UmuD', RecA, SSB (Cro- mutation frequency per gene) [2] is reported as 0.00078 and the Cro- mutation frequency after gap-filling replication by pol II with UmuD', RecA, SSB (Cro- mutation frequency per gene) [3] is reported as 0.00065. It also gave a Cro- mutation frequency after in vitro gap-filling replication, SSB omitted (Cro- mutation frequency per gene) [4] of 0.00051.

UmuD' (from UniProt P0AG11) gave a Cro- mutation frequency after gap-filling replication by pol III holoenzyme with UmuD', RecA, SSB (Cro- mutation frequency per gene) [1] of 0.00081, a Cro- mutation frequency after gap-filling replication by pol I with UmuD', RecA, SSB (Cro- mutation frequency per gene) [2] of 0.00078 and a Cro- mutation frequency after gap-filling replication by pol II with UmuD', RecA, SSB (Cro- mutation frequency per gene) [3] of 0.00065. For the same substance, the Cro- mutation frequency after in vitro gap-filling replication, UmuD' omitted (Cro- mutation frequency per gene) [4] was 0.00027.
